The supplement of paper PMC7877785
± gives the uncertainty stated by the source.

Assay: self-splicing fitness, log relative to wild type (ln ratio); higher = more splicing; Tetrahymena group I intron in knt gene, E. coli kanamycin selection, DiMSum; sequences stand for … in CUCUCU…GGAGGGAAAAGUUAUCAGGCAUGCACCUGGUAGCUAGUCUUUAAACCAAUAGAUUGCAUCGGUUUAAAAGGCAAGACCGUCAAAUUGCGGGAAAGGGGUCAACAGCCGUUCAGUACCAAGUCUCAGGGGAAACUUUGAGAUGGCCUUGCAAAGGGUAUGGUAAUAAGCUGACGGACAUGGUCCUAACCACGCAGCCAAGUCCUAAGUCAACAGAUCUUCUGUUGAUAUGGAUGCAGUUCACAGACUAAAUGUCGGUCGGGGAAGAUGUAUUCUUCUCAUAAGAUAUAGUCGGACCUCUCCUUAAUGGGAGCUAGCGGAUGAAGUGAUGCAACACUGGAGCCGCUGGGAACUAAUUUGUAUGCGAAAGUAUAUUGAUUAGUUUUGGAGUACUCGUGGUCG
Outline: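 Fitness was computed with DiMSum as the error-weighted combination of replicate fold changes, kanamycin versus none, each normalised to wild type. The library randomised all eight intron nucleotides of the P1ex region, with the intron placed in the knt kanamycin-resistance gene on pET-22b(+) in E. coli BL21(DE3). Six replicate transformations were grown overnight at 37°C or 30°C on LB agar with or without 25 μg/mL kanamycin, plus 100 μg/mL carbenicillin, 50 μM IPTG and 0.2% rhamnose. Pooled colonies were amplicon-sequenced on an Illumina HiSeq 2500.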

| Sequence | self-splicing fitness (ln) (30 °C) | self-splicing fitness (ln) (37 °C) |
| --- | --- | --- |
| CUUAAGCAAUAUUACGCAUA | -3.2 ± 0.32 | – |
| CUUAAGCAAUAUUACGCCGG | -4.01 ± 0.33 | -1.85 ± 0.25 |
| CUUAAGCAAUAUUACGCGUG | -2.99 ± 0.15 | -1.26 ± 0.12 |
| CUUAAGCAAUAUUACGCUAU | -1.59 ± 0.32 | -1.8 ± 0.33 |
| CUUAAGCAAUAUUACGCUGA | -3.94 ± 0.39 | -1.17 ± 0.25 |
| CUUAAGCAAUAUUACGGAAC | – | -1.89 ± 0.3 |
| CUUAAGCAAUAUUACGGCAA | -2.7 ± 0.42 | -2.57 ± 0.38 |
| CUUAAGCAAUAUUACGGCAG | -0.565 ± 0.099 | -0.3 ± 0.12 |
| CUUAAGCAAUAUUACGGGAG | -3.42 ± 0.27 | -2.67 ± 0.27 |
| CUUAAGCAAUAUUACGGUGA | -3.72 ± 0.24 | -2.17 ± 0.19 |
| CUUAAGCAAUAUUACGGUGC | -3.83 ± 0.17 | -2.25 ± 0.2 |
| CUUAAGCAAUAUUACGUACC | -2.7 ± 0.35 | -0.17 ± 0.47 |
| CUUAAGCAAUAUUACGUCAC | -3.97 ± 0.29 | -2.91 ± 0.3 |
| CUUCAGCAAUAUUACGACAG | -0.695 ± 0.069 | -0.281 ± 0.093 |
| CUUCAGCAAUAUUACGACAU | -3.599 ± 0.023 | -2.28 ± 0.036 |
| CUUCAGCAAUAUUACGAGAC | -4.24 ± 0.34 | -3.01 ± 0.34 |
| CUUCAGCAAUAUUACGAUAU | -3.28 ± 0.22 | -1.73 ± 0.27 |
| CUUCAGCAAUAUUACGCAAA | -2.99 ± 0.26 | -2.21 ± 0.33 |
| CUUCAGCAAUAUUACGCAGC | -2.04 ± 0.22 | -1.5 ± 0.32 |
| CUUCAGCAAUAUUACGCAUG | -1.48 ± 0.061 | 0.119 ± 0.068 |
| CUUCAGCAAUAUUACGCAUU | -3.11 ± 0.19 | -2.28 ± 0.2 |
| CUUCAGCAAUAUUACGCCCC | – | -1.14 ± 0.47 |
| CUUCAGCAAUAUUACGCUAA | -3.37 ± 0.26 | -2.3 ± 0.3 |
| CUUCAGCAAUAUUACGCUAC | -2.4 ± 0.22 | -2.25 ± 0.37 |
| CUUCAGCAAUAUUACGCUCC | -2.61 ± 0.26 | – |

| Sequence | self-splicing fitness (ln) (30 °C) | self-splicing fitness (ln) (37 °C) |
| --- | --- | --- |
| CUUCAGCAAUAUUACGCUGU | -3.69 ± 0.31 | -2.47 ± 0.42 |
| CUUCAGCAAUAUUACGGACU | -2.26 ± 0.16 | -2.66 ± 0.27 |
| CUUCAGCAAUAUUACGGAGC | -3.04 ± 0.29 | -2.65 ± 0.25 |
| CUUCAGCAAUAUUACGGAGU | -3.27 ± 0.15 | -3.23 ± 0.28 |
| CUUCAGCAAUAUUACGGAUA | -1.97 ± 0.12 | -0.695 ± 0.11 |
| CUUCAGCAAUAUUACGGCAC | -4.13 ± 0.33 | -0.568 ± 0.13 |
| CUUCAGCAAUAUUACGGGGG | -3.72 ± 0.21 | -2.23 ± 0.26 |
| CUUCAGCAAUAUUACGGGUG | -0.356 ± 0.038 | 0.33 ± 0.058 |
| CUUCAGCAAUAUUACGGGUU | -4.12 ± 0.24 | -2.49 ± 0.23 |
| CUUCAGCAAUAUUACGGUUG | -1.28 ± 0.071 | -0.455 ± 0.088 |
| CUUCAGCAAUAUUACGUACA | – | -2.14 ± 0.5 |
| CUUCAGCAAUAUUACGUGAG | -0.619 ± 0.031 | -0.0413 ± 0.054 |
| CUUCAGCAAUAUUACGUGCA | -3.53 ± 0.25 | -3.83 ± 0.3 |
| CUUCAGCAAUAUUACGUUAC | -3.35 ± 0.28 | -2.27 ± 0.27 |
| CUUGAGCAAUAUUACGAAUG | -1.23 ± 0.12 | -0.596 ± 0.19 |
| CUUGAGCAAUAUUACGAGAG | – | -1.44 ± 0.24 |
| CUUGAGCAAUAUUACGAUAG | -2.67 ± 0.18 | -0.896 ± 0.2 |
| CUUGAGCAAUAUUACGAUCU | – | -1.04 ± 0.31 |
| CUUGAGCAAUAUUACGCAUG | -2.7 ± 0.21 | -1.3 ± 0.44 |
| CUUGAGCAAUAUUACGCCGA | – | -2.7 ± 0.33 |
| CUUGAGCAAUAUUACGGCUA | – | -1.11 ± 0.42 |
| CUUGAGCAAUAUUACGUAAG | -1.68 ± 0.1 | -0.582 ± 0.13 |
| CUUGAGCAAUAUUACGUGCA | -3.2 ± 0.29 | -1.94 ± 0.25 |
| CUUUAGCAAUAUUACGACCG | -0.732 ± 0.27 | 0.518 ± 0.26 |
| CUUUAGCAAUAUUACGAUGU | -3.36 ± 0.28 | -2.36 ± 0.24 |

| Sequence | self-splicing fitness (ln) (30 °C) | self-splicing fitness (ln) (37 °C) |
| --- | --- | --- |
| CUUUAGCAAUAUUACGCAUC | – | -1.54 ± 0.43 |
| CUUUAGCAAUAUUACGCAUG | -1.2 ± 0.11 | -1.96 ± 0.11 |
| CUUUAGCAAUAUUACGCCCG | -0.47 ± 0.17 | 0.513 ± 0.24 |
| CUUUAGCAAUAUUACGCCGG | -1.74 ± 0.16 | -1.22 ± 0.19 |
| CUUUAGCAAUAUUACGCUCG | -1.68 ± 0.15 | -0.602 ± 0.18 |
| CUUUAGCAAUAUUACGCUGG | -3.05 ± 0.3 | -1.99 ± 0.3 |
| CUUUAGCAAUAUUACGGACC | – | -1.83 ± 0.41 |
| CUUUAGCAAUAUUACGGCUU | -3.62 ± 0.32 | – |
| CUUUAGCAAUAUUACGGUUG | -0.918 ± 0.083 | -0.666 ± 0.099 |
| CUUUAGCAAUAUUACGGUUU | -2.79 ± 0.21 | -2.71 ± 0.24 |
| CUUUAGCAAUAUUACGUCUA | – | -2.26 ± 0.29 |
| CUUUAGCAAUAUUACGUCUC | -2.64 ± 0.24 | -3.21 ± 0.3 |
| CUUUAGCAAUAUUACGUGCA | -2.93 ± 0.23 | -2.75 ± 0.25 |
| CUUUAGCAAUAUUACGUGGU | -2.28 ± 0.25 | -2.8 ± 0.26 |
| GAAAAGCAAUAUUACGAAUG | -1.89 ± 0.07 | -1.19 ± 0.08 |
| GAAAAGCAAUAUUACGACCA | -0.386 ± 0.13 | 0.235 ± 0.19 |
| GAAAAGCAAUAUUACGAGCA | -0.889 ± 0.063 | -0.307 ± 0.076 |
| GAAAAGCAAUAUUACGAUCG | -0.618 ± 0.06 | 0.218 ± 0.08 |
| GAAAAGCAAUAUUACGAUGA | -0.7 ± 0.1 | -0.295 ± 0.11 |
| GAAAAGCAAUAUUACGAUGG | -2.73 ± 0.13 | -0.913 ± 0.12 |
| GAAAAGCAAUAUUACGCACC | -0.811 ± 0.28 | -0.377 ± 0.31 |
| GAAAAGCAAUAUUACGCAGA | -2.53 ± 0.18 | -2.2 ± 0.13 |
| GAAAAGCAAUAUUACGCAGU | -3.38 ± 0.18 | -1.69 ± 0.15 |
| GAAAAGCAAUAUUACGCGGG | -3.37 ± 0.2 | -2.21 ± 0.18 |
| GAAAAGCAAUAUUACGCUGG | -2.57 ± 0.2 | -1.24 ± 0.25 |

| Sequence | self-splicing fitness (ln) (30 °C) | self-splicing fitness (ln) (37 °C) |
| --- | --- | --- |
| GAAAAGCAAUAUUACGCUGU | -2.75 ± 0.15 | -0.534 ± 0.12 |
| GAAAAGCAAUAUUACGGAGC | -2.46 ± 0.16 | -0.743 ± 0.12 |
| GAAAAGCAAUAUUACGGCGA | -0.334 ± 0.07 | -0.204 ± 0.074 |
| GAAAAGCAAUAUUACGGCGU | -0.208 ± 0.095 | 0.24 ± 0.11 |
| GAAAAGCAAUAUUACGGUAA | -1.98 ± 0.12 | -1.18 ± 0.12 |
| GAAAAGCAAUAUUACGGUGG | -3.78 ± 0.2 | -1.66 ± 0.15 |
| GAAAAGCAAUAUUACGUACA | -0.498 ± 0.066 | -0.0587 ± 0.082 |
| GAAAAGCAAUAUUACGUAUA | -0.936 ± 0.098 | -0.833 ± 0.12 |
| GAAAAGCAAUAUUACGUCGG | -4.39 ± 0.32 | -2.89 ± 0.24 |
| GAAAAGCAAUAUUACGUGAA | -1.56 ± 0.065 | -1.33 ± 0.085 |
| GAAAAGCAAUAUUACGUGGC | -3.57 ± 0.2 | -2.06 ± 0.16 |
| GAAAAGCAAUAUUACGUGGU | -3.58 ± 0.17 | -2.79 ± 0.2 |
| GAAAAGCAAUAUUACGUGUU | -2.35 ± 0.083 | -1.18 ± 0.088 |
| GAAAAGCAAUAUUACGUUCA | -0.878 ± 0.086 | -0.773 ± 0.082 |
| GAAAAGCAAUAUUACGUUGC | -3.83 ± 0.15 | -2.67 ± 0.14 |
| GAACAGCAAUAUUACGAACG | -1.21 ± 0.1 | -0.566 ± 0.14 |
| GAACAGCAAUAUUACGAGCU | -1.99 ± 0.091 | -1.18 ± 0.09 |
| GAACAGCAAUAUUACGCAGA | -2.1 ± 0.14 | -1.66 ± 0.12 |
| GAACAGCAAUAUUACGCUAU | -2.43 ± 0.1 | -1.21 ± 0.11 |
| GAACAGCAAUAUUACGCUGC | – | -1.69 ± 0.26 |
| GAACAGCAAUAUUACGGGAA | -2.38 ± 0.2 | 0.0433 ± 0.14 |
| GAACAGCAAUAUUACGUAAG | -1.06 ± 0.083 | -0.059 ± 0.093 |
| GAACAGCAAUAUUACGUAAU | -0.976 ± 0.065 | -0.107 ± 0.09 |
| GAACAGCAAUAUUACGUCGC | -1.61 ± 0.11 | -0.68 ± 0.12 |
